The nanobody polyreactivity screen of Harvey et al. (2022)

Assay: yeast display, Sf9 membrane polyspecificity reagent, FACS + sequencing; frameworks hold sequencing errors
Procedure, shortened: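 Synthetic nanobody libraries on Saccharomyces cerevisiae BJ5465 were galactose-induced for 36–48 hours, stained 1 hour at 4 °C with 10% biotinylated, detergent-solubilized Sf9 membrane reagent and enriched on streptavidin microbeads. FACS then separated cells into low and high (top ~1%) gates by anti-HA (expression) and streptavidin (reagent binding) fluorescence. Genes were colony-PCR amplified, MiSeq 2 × 250 sequenced and CDR-length filtered. A clone's polyreactivity label is that of its gate of origin.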

Sequence	polyreactivity (PSR sort gate)
QVQIVESGGGLVQAGGSLRLSCAASGFIFQAYAMGWYRQAPGKERELVAAISSTSGRTYYADSVKGRFTISRDNAKNTVYLQMNSLKPEDTAVYYCARAVSSRNSGEYHYWGQGTQVTVSS	high polyreactivity
QVQLVEAGGGLVQAGGSLRLSCAASGSIFFIYAMGWYRQAPGKERELVAAITSGDRTYSADSVKGRFTISRDNAKNTVYLQMNSLKPEDTAVYYCNADYYISYWGQGTQVTVSS	low polyreactivity
QVQLVESGGGLVQAGGSLRLSCAASGSIFSTYARGWYRQAPGKERELVATITSGGNTNYADSVKGRYTISRDNAKNTVYLQMNSLKPEDTAVDYSNKEWDGDGYTDDWDYDYWGQGTQVTVSS	low polyreactivity
QVQLVESGGGLVQAGGSLRLSCAASGSTFVGYAMGWYRQAPGKERELVADIDSIGGSTYYADSVKGRFTISRDYAKNTVYLQMNSLKPEDTAVYYCAARRFDTALVLYDYWGQGTQVTVSS	low polyreactivity
QEQLQESGGGLVQAGGSLRLSCAASGNIYDADIMGWYRQAPGKERELVTSITDGGSTNYADSVKGRFTISRDNAKNTVYLQMNSLKPEDTAVYFCAAIAYPVIPTSFDYNSDYSYWGQGTQVTVSS	low polyreactivity
QVQLVESGGGLVQAGGSLRLSCAASGSTFYPYTMGWYRQAPGKERELFAAITSGGNTNYADSVKGRFTISRDNAKNTVYLQMNSLKPEDTAVYYCNAEPEGTTGNYFPYDYWGQGTQVTVSS	low polyreactivity
QVQLVESGGGLVQAGGSLRLSCAASGSIFKKYAMVWYRQAPGKERELVAAITRGTYYADSVKGRFTISRDNAKNTVYLQMNSLKPEDTAVYFCNREYWGRGYYRVRGEYDYWGQGTQVTVSS	low polyreactivity
QVQLVESGGGLVQAGGSLRLSCAASGFTFRWYAMGWYRQAPGKERELVARIRGSGGNTYYADSVKGRFTISRDNAKNTVYLQMNSLKPEDTAVYYCAAMQSPTRSFIYRFDYWGQGTQVTVSS	high polyreactivity
QVQLVESGGGLVHAGGSLRLSCAASGFTFGGYALGWYRQAPGKERELVAAITGSGGNTFYADSVKGRFTISRDNAKNTVYLQMNSLKPEDTAVYYCAKTWYPWSRYGYYRRYDSWGQGTQVTVSS	low polyreactivity
QVQLVESGGGLVQAGGSLRLSCAASGSTFYRYTMGWYRQAPGKERELVAAISRSGGRTYYADSVKGRFTISRDKAKNTVSVQMNSLKPEDTAVYYCAAARRYGRYFGYPMEYWGQGTQVTVTS	high polyreactivity
QVQLVESGGGLVQAGGSLRLSCAASGFTFYYNAMGWYRQAPGKERELVSIRFRGGNTYYADSVKVRFTISRDNAKNTVYLQMNSLKPVDTAVYYCNADDRVSTYVDFDYWGQGTQVTVSS	low polyreactivity
QVQLVESGGGLVQAGGSLRLSCAASGRTFKPYAMGWYRQAPGIERELVARISGSGGSTYYADSVKGRFTISRDNGKNTVYLQLNSLKPEDTAVYYCATTPYYWFDYWGQGTQVTVSS	low polyreactivity
QVQLVESGGGLVQAGASLRLSCAASGSTFLRNAMGWYRQAPGKKGSWVATISYDGDSTYYADSVKGRFTISRDNTKNTVYLQMNSLKPEDPAVYYCAASYSLTFWDKDDYWGQGTQVSVSS	low polyreactivity
QVQLVESGGGLVQAGGSLRLSCAASGSTFGRNAMGWYRQAPGKERELVAAISRSGGSTYYADSVKGRFTISRDNAKNTVYLQMNRLKPEDTAVYYCAAAVSPGGVYGNRYYYWGQGTQVTVSS	high polyreactivity
QVHLQESRGGLVQAGGSLRLSCAASGIIFDNPNMGCYRQAPGKERELVATINSGATTNYADSVKGRFTISRDNAKNTVYLQMNSLIPEDTAVYYCAVDLSPTYFYYWGQGTQVTVSS	high polyreactivity
QVQLVESGGGLVQAGGSLRLSCAASGFTFTGNAMGWYRQAPGKERELVAAITSGGRTYYADSVKGRFTISRDNAKNTVYLQMNSLIPEDTAVYYCNTAGLKRYVTFYYWGQGTQVTVSS	high polyreactivity
QVQLVESGGGLVQAGGSLRIICPASGNTFAYYAMGWYRQAPGKEREFVAAISGSGGRTYYADSVKGRFTISRDNAKNTVYLQMNILKPEDTAVYYCNARPAGGQGYGYWGQGTQVTVSS	high polyreactivity
QVQLVESGGGLVQAGGSLRLSCAASGFIIYYYAMGWYRQAPGKERELVARISRRGGSTYYADSVKGRFTISRDNAKNTVYLQMNSLKPEDTAVYYCNAERRYSWYSQGDYWGQGTQVSVSS	high polyreactivity
QVQLQESGGGLVQAGGSLRLSCAASGTISDSGLMGWYRQAPGKERELVAGISSGGITNYADSVKGRFTISRDIAKNTVYLQMNSLKPEDTAVYWGQGTQVTVSS	low polyreactivity
QVQLVESVGGLVQAGGSLRLSCDASGRIFRRYAMGWYRQAPGKERELVAAISSSGDSTYYADSVKGRFTISRDNAKNTVYLQMNSLKPEDTAVYYCAAVTRRYVLSTFYYWGQGTQVTVSS	high polyreactivity
QVKLKESVGGLVQAGGSLRLSCAASGSISATGNMGWYRQAPGEERELVAAINFGSNTYYADSVKGRFTISRDNAKNTVYLQKSGLKPEDTAVYYCAVDGWYVGPYYYWGQGTQVTVSS	high polyreactivity
QVQLVESGGGLVEAGGSLRLSCAASGSIFGNYALGWYRQAPGKERELVAAITSSNGNTYNADSVKGRFTISRDTAKNTVYFQMNSLKPEDTAVYYCATDSWSPYLQTIFYYWGHGTQVTVSS	low polyreactivity

Sequence	polyreactivity (PSR sort gate)
QVQHGESGGGLVQAGGSLRLTCAASGSIFKYNAMGWYRQAPGKERELDAAISLSGASRSYADSVKGRFTISRVNAKNTVYLQMNSLKPEDTAVYYCNAYYWYYSTRKYYYWGQGTQETVSS	high polyreactivity
QVQLVESVGGLVQAGGSLRLSCAASGLIFPWYAMGWYRQAPGKERELVAAIRWRGGGTYYADSVKGRFTISRDNAKNTVYLQMNSLKPEDTAVYYCAARRPAKGMGYWGQGTQVTVSS	high polyreactivity
QVQLVESGGGLVQAGGSLRLSCAASGLTFDPYALGWYRQAPGKERELVATISWSTSSTYYADSVKGRFTISRDNAKNTVYLQMNSLKPEDTAVYYCNAGYIESWFLQWIEYDYWGQGTQVTVSS	high polyreactivity
QVQLQESGGGLVQASGSIFHEPTMGWYRQAPGKERELVAGISSGANTYYADSGKGRCTISRDNAKNTVYLQMNSLKPEDTAVYYCNARRRYSLTMDYWGHGTQVTVSS	high polyreactivity
QVQLVESGGGLVQAGGSLRLSCAASGRIFRGYAMGWYRQAPWKERELVAAISRSGGSTYYADSVKGRFTISRDNAKNTVYLQMNSLKPVDTAVYYCAAYTYSAGGYWGQGSQVTVSS	high polyreactivity
QVQLVESGGGLVQAGGSLRLSCAASGYTFYANAMGWYRQAPGKEREFVASITWSGGSTYYADSVKGRFTISRDNAKNTVYLQMNSLKPEDTAVYYCNTDLTYPYPNVEVLVYGFKLDYWGQGTQVTVSS	low polyreactivity
QDQLVESGGGLVQAGGSLRLSGAASGSTFDRYAMGWYRQAPGKEREFVAAITWGGGSTYYADSVKGRFTISRDNAKNTVYLQMNSLKPEDTAVYYCASRYGATFGYWGQGTQVTVSS	low polyreactivity
QVQLVESGGGLVQAGGSLRLSCAASGSTFKYYVMGWYRQAPGKERELVAAISGRTGSTYYADSVKGRFTISRDNAKNTVYLQMNSLKPEDTAVYYCAKRGFLYWDHVSGFYRYDYWGQGTQVTVSS	low polyreactivity
QVQLVESGGGLVQAGGSLRLSCAASGRIFRKYAMGWYRQAPGKERELVAVINDRGGSTYYADSVKGRFTISRDNAKNTVYLQMNSLKPEDTAVYYCNATGPKKDTARYDYWGQGTQVTVSS	low polyreactivity
QVQLVESGGGLVQAGGSLRLSCAASGSIFSANAMGWYRQAPGKERELLAAISSSGNTNYADSVKGRFTISRDNAKNTVYLQMNSLKPEDTAVYYCAVELKQVTPGLGYITLDYWGQGTQVTVSS	low polyreactivity
QVQLVESGGGLVQAGGSLRLSCAASGSTFFRYAMGWYRQAPGKEREFVAAISKRGGSTHYADSVKGRFTISRDNAKNTVYLQMNSLKPEDTAVYYCAASSFTSSYNYWGQGTQVTVSS	high polyreactivity
QVQLVESGGGLVQAGGSRRLSCAASGFFFRNYAMGWYRQAPGKEMELVAVITSSGGSTYYADSVKGRFTISRDNAKNTVYLQMNSLKPEDTAVYYCNKPGLRSGPRYDYWGQGTQVTVSS	high polyreactivity
QVQLVESGGGLVQAGGRLRLSCAASGRTFPYYVMGWYRQAPGKERELVAVIRWRGGSTYYADSVKGRFTISRDNAKNTVYLQMNSLKPEDTAVYYCAARRHIVVATYDRRYDYWGQGTQVTVSS	low polyreactivity
QVHLVESGGGLVQAGGSLRLSCADSGSTFKNYAMGWYRPAPGKERELVATITKRGGSTYYADSVKGRFTISRDNAKNTVYLQMKSMKPEDTAVYYCAAAPNGPRYRDRFDYWGQGNQVTVSS	high polyreactivity
QVQLVESGGGLVQAGGSLRLSCAASGLTFIKYAMGWYRQAPGKERELVADITSSGGTTYYADSVKGRFTISRDNAKNTVYLQMNSLKPEDTAVYYCAAGTRTGMNWGQGTQVTVSS	high polyreactivity
QVQLVESGGGLVQAGGSLRLSCAASGSTFPVNTMGWYRQAPGKERELVAAITKNGANTYYADSVKGRFTISRDNAKNTVYLQMNSLKPEDTADYYCAARYVYGKSYSRWLVELDYWGQGTQVTVSS	low polyreactivity
QVQLVESGGGLVQAGGSLRLSCAASGRILYKYAMGWYRQAPGKERELVAAISWRGTTTYYADSVKGRFTISRDNAKNTVYLQMNSLKPEDTAVYYCAKDRSYGYFSRPVSQYDYWGQGTQVTVSS	high polyreactivity
QVQLVESGGGLVQAGGSLRLSCAASGSIYYSYAMGWYRQAPGKERELVARITKRGGRTYYADSVKGRFTISRDNAKNTVYLQMNSLKPEDTAVYYCAATTGHRTYRYYYWGQGTQVTVSS	high polyreactivity
QVQLVESGGGLVHAGGSLRLSCAASGLIFKTYTMGWYRQAPGKEREFVAAITTSGGSTYYADSVKGRFTISRDNAKNTDYVEMNRLKPEETAVYFCAAEGYTDATQSLFYYWGQGTQVTVSS	high polyreactivity
QVQLVESGGGLVQAGGSLRLSCAASGRTFGTYAMGWYRQAPGKERELVARISYTGGSTSYADSVKGRFTISRDNAKNTVYLQMNSLKPEDTAVYYCNASSRSGSWRFYYWGQGTQVTVSS	high polyreactivity
QVQLVESGGGLVQAGGSLRLSCAASGRIFRYNAMGWYRQAPGKERELVAAISFSTTSPYYADSVKGRFTISRDNAKNTVYLQMNSLKPEDTAVYNCNTPGLPIDSEYDYWGQGTQVTVSS	low polyreactivity
